Experimental data as given in patent publication US20100221798.

Target: octadecenoyl-ACP

B1: Synechococcus elongatus PCC7942 orf1594 protein (YP-400611; Synpcc7942-1594; acyl-ACP reductase) with C-terminal His-tag (protein)
chain: MFGLIGHLTSLEQARDVSRRMGYDEYADQGLEFWSSAPPQIVDEITVTSATGKVIHGRYIESCFLPEMLAARRFKTATRKVLNAMSHAQKHGIDISALGGFTSIIFENFDLASLRQVRDTTLEFERFTTGNTHTAYVICRQVEAAAKTLGIDITQATVAVVGATGDIGSAVCRWLDLKLGVGDLILTARNQERLDNLQAELGRGKILPLEAALPEADFIVWVASMPQGVVIDPATLKQPCVLIDGGYPKNLGSKVQGEGIYVLNGGVVEHCFDIDWQIMSAAEMARPERQMFACFAEAMLLEFEGWHTNFSWGRNQITIEKMEAIGEASVRHGFQPLALAI
Km for the reduction of octadecenoyl-ACP in the presence of 2 mM NADPH (in vitro reductase assay, aldehyde formed measured by GC/MS): 7.8 ± 2 µM
